Laboratory results taken from US20090104146A1.

Molecular target: gp130/OSMRβ receptor complex (type II OSM receptor) on NHEK (human) (UniProt P40189)
Assay: cell-based or functional assay

Sequence of gp130/OSMRβ receptor complex (type II OSM receptor) on NHEK (human) (P40189 23-918, chain 1 of 2): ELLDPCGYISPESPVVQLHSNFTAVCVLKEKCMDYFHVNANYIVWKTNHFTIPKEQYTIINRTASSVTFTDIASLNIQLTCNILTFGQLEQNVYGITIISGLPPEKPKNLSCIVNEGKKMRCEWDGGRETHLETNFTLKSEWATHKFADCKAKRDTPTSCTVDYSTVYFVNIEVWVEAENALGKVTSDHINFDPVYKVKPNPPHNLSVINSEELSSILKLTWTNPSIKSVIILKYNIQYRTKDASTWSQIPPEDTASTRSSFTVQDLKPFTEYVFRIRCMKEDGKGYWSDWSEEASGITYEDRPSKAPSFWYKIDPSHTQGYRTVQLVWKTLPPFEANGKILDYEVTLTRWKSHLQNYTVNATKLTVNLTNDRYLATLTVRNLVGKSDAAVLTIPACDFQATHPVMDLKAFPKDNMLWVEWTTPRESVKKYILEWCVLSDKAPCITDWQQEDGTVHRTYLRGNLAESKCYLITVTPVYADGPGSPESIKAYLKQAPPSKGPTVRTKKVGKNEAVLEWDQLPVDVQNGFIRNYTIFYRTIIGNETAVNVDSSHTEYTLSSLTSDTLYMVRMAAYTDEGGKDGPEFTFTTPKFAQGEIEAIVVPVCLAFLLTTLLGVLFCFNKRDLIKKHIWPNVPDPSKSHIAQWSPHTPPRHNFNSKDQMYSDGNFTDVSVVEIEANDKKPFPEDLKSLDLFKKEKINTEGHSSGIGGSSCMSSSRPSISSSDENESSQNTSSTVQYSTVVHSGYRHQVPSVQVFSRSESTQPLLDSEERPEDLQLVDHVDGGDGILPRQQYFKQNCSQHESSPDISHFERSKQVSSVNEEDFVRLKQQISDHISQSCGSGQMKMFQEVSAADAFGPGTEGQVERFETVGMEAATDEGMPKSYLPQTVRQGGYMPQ
Sequence of gp130/OSMRβ receptor complex (type II OSM receptor) on NHEK (human) (Q99650 28-979, chain 2 of 2, further chain): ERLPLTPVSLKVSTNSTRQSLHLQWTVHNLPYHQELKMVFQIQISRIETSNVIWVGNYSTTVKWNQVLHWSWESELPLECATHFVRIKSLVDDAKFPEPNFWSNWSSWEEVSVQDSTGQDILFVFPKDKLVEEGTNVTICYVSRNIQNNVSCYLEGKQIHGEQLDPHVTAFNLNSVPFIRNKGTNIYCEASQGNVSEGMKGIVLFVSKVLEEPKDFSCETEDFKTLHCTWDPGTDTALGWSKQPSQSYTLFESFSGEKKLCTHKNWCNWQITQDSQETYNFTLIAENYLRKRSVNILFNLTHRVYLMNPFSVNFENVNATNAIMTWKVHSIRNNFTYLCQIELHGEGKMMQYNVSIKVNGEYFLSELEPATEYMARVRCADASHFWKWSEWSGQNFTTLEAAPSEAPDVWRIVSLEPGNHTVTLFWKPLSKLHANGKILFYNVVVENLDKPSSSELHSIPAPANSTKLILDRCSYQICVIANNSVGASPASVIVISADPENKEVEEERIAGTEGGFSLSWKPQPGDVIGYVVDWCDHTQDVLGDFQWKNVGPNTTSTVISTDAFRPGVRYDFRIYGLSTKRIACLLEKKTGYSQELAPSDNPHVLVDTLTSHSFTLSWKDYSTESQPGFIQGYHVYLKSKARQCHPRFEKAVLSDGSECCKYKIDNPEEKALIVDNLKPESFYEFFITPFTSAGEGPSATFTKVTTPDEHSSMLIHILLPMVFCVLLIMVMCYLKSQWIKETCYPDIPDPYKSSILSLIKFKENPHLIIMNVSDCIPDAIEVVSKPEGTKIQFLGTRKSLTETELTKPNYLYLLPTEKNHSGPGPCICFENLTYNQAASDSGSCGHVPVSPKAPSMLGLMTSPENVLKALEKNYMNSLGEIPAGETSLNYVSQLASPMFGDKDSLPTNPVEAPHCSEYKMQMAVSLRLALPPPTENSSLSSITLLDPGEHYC

Human recombinant oncostatin M (OSM) (from UniProt P13725 26-221) (ligand)
tyrosine phosphorylation of STAT3 in NHEK (Western blot): 3 ng/mL
